In experiment [1] the target is T1, EGFR on cells (A431; tumor cell lines; K562 cells electroporated with EGFR mRNA) (UniProt P00533 25-1210, limits assumed).
T1 construct: whole, on cells; also called epidermal growth factor receptor
As to the kind of experiment: affinity of the scFv printed above the panel (legend paragraph 89; called KD, nM in paragraph 90); method and form of EGFR not given in the filing, text cites Zhou et al. 2007.

The target of experiment [2] is Folate receptor alpha on cells (SKOV3, A1847, T47D; low levels on 293T and IOSE 6) (human, UniProt P15328 25-234). As to the kind of experiment: cell-based or functional assay.
Folate receptor alpha on cells (SKOV3, A1847, T47D; low levels on 293T and IOSE 6), sequence (P15328 25-234, stated change not applied): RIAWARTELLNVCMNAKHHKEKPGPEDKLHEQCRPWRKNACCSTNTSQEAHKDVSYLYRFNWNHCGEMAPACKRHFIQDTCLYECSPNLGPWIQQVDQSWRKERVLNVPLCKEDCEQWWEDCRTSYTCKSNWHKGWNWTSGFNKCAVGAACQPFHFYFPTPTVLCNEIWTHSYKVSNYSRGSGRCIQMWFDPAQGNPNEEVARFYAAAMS

Numbering of substitutions follows the chain as printed.

The term Kd denotes the constant that tells how readily two partners part at equilibrium. Low values mean tighter binding, high ones weaker binding.

B1: C10 (scFv)
scFv: EVQLVQSGAEVKKPGSSVKVSCKASGGTFSSYAISWVRQAPGQGLEWMGGIIPIFGTANYAQKFQGRVTITADESTSTAYMELSSLRSEDTAVYYCAREEGPYCSSTSCYGAFDIWGQGTLVTVSSGGGGSGGGGSGGGGSQSVLTQDPAVSVALGQTVKITCQGDSLRSYFASWYQQKPGQAPTLVMYARNDRPAGVPDRFSGSKSGTSASLAISGLQSEDEADYYCAAWDDSLNGYLFGAGTKLTVL
notes: The CAR built from it is m23; also called C10 scFv (anti-EGFR, parental)
Consider B1, for which the Kd in experiment [1] came to 264 nM.

B2: P2-4 (scFv)
scFv: B1 scFv with G111A, V151A
notes: The CAR built from it is m21; also called P2-4 scFv (anti-EGFR)
Regarding B2, binding in experiment [1] was characterised by a dissociation constant (Kd) of 15.4 nM.

B3: P3-5 (scFv)
scFv: B1 scFv with M48V, T69K, T76A, F172L, M188T
notes: The CAR built from it is m22; also called P3-5 scFv (anti-EGFR)
Turning to B3, the Kd in experiment [1] turned out to be 88.2 nM.

B4: C4-27z CAR (fully human anti-FRA C4 scFv linked to CD27 and CD3z signaling domains), on primary human T cells (other, not shown: large carriers)
chain: QLVESGGGLVQPGRSLRLSCTTSGFTFGDYAMIWARQAPGKGLEWVSSISSSSSYIYYADSVKGRFTISRDNAKNSLYLQMNSLRAEDTAVYYCARERYDFWSGMDVWGKGTTVTVSSGGGGSGGGGSGGSAQSALTQPASVSGSPGQSITISCTGTSSDVGSYNLVSWYQQHPGKAPKLMIYEGSKRPSGVSNRFSGSKSGNAASLTISGLQAEDEADYYCQSYDSSLSVVFGGGTKLTVLG
With B4, in experiment [2], the “CAR expression kept after overnight co-culture with SKOV3 cells at the lowest E:T ratio” value is ~50 % of initial CAR expression; the “frequency of CAR T cells expressing IFN-γ after incubation with FRAPOS SKOV3 cells, fold over MOv19 CAR T cells” value stood at 5.6 fold; the “frequency of CAR T cells expressing IL-2 after incubation with FRAPOS SKOV3 cells, fold over MOv19 CAR T cells” value is 9 fold; the “frequency of CAR T cells expressing TNF-α after incubation with FRAPOS SKOV3 cells, fold over MOv19 CAR T cells” value came to 6.1 fold.
